Assays:
[1] = molecular target: human mitochondrial lysyl-tRNA synthetase with a C-terminal HA-tag (human) (UniProt Q15046); test: AlphaScreen or HTRF; HTRF; 1.5 nM mLysRS-HA or mLysRS∆C-HA (dimer) with rising His-tagged Pol (0.02 to 10 nM dimer), IN (0.5 to 125 nM dimer) or TF (1 to 1000 nM monomer); 10 mM Tris-HCl pH 7.5, 50 mM NaCl, 10 mM 2-mercaptoethanol, BSA 1 mg/ml, 1 h on ice; anti-H6-Eu3+ cryptate and anti-HA-XL665; apparent Kd
[2] = molecular target: human mitochondrial lysyl-tRNA synthetase with a C-terminal HA-tag (human) (UniProt Q15046); test: as above; remark: listed apart in the source
[3] = molecular target: p38 (Homo sapiens) (UniProt Q13155); test: SPR; conditions: cited from earlier work
Sequence of p38 (Homo sapiens) (Q13155 whole entry): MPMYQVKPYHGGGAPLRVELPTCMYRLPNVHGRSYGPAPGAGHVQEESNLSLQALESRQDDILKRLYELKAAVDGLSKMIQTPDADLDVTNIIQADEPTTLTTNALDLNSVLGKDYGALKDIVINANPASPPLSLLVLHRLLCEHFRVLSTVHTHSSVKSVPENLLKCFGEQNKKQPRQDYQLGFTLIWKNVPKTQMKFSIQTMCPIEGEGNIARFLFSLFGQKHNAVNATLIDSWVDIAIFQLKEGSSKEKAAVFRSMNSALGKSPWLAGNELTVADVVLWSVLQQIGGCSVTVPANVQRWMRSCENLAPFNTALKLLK

[4] = molecular target: human mitochondrial lysyl-tRNA synthetase with a C-terminal HA-tag (human) (UniProt Q15046); test: AlphaScreen or HTRF; HTRF as in a1, Pol on mLysRS in the presence of 1 μM tRNA3^Lys

Substance	Kd [1] [nM]	Kd [2] [nM]	Kd [3] [nM]	Kd [4] [nM]
HIV-1 integrase with a C-terminal His6 tag (domain or fragment)	11.8	12.9		
mLysRS (from UniProt Q15046)			0.3	
HIV-1 Pol polyprotein (Pol region of GagPol) with a C-terminal His6 tag (natural protein)	1.3			0.71
